This passage reports migration of rat CSMC (Transwell, 4 hr); optimal VEGF concentration and proliferation of rat CSMC (CellTiter-96, OD490nm, 3 days); optimal VEGF concentration results from patent publication US20030096747A1.

In the assay the target is VEGFR-1 expressed in rat cavernous smooth muscle cells (CSMC) (rat) (UniProt P53767). Nature of the assay: cell-based or functional assay.
Chain of VEGFR-1 expressed in rat cavernous smooth muscle cells (CSMC) (rat) (P53767 23-1336): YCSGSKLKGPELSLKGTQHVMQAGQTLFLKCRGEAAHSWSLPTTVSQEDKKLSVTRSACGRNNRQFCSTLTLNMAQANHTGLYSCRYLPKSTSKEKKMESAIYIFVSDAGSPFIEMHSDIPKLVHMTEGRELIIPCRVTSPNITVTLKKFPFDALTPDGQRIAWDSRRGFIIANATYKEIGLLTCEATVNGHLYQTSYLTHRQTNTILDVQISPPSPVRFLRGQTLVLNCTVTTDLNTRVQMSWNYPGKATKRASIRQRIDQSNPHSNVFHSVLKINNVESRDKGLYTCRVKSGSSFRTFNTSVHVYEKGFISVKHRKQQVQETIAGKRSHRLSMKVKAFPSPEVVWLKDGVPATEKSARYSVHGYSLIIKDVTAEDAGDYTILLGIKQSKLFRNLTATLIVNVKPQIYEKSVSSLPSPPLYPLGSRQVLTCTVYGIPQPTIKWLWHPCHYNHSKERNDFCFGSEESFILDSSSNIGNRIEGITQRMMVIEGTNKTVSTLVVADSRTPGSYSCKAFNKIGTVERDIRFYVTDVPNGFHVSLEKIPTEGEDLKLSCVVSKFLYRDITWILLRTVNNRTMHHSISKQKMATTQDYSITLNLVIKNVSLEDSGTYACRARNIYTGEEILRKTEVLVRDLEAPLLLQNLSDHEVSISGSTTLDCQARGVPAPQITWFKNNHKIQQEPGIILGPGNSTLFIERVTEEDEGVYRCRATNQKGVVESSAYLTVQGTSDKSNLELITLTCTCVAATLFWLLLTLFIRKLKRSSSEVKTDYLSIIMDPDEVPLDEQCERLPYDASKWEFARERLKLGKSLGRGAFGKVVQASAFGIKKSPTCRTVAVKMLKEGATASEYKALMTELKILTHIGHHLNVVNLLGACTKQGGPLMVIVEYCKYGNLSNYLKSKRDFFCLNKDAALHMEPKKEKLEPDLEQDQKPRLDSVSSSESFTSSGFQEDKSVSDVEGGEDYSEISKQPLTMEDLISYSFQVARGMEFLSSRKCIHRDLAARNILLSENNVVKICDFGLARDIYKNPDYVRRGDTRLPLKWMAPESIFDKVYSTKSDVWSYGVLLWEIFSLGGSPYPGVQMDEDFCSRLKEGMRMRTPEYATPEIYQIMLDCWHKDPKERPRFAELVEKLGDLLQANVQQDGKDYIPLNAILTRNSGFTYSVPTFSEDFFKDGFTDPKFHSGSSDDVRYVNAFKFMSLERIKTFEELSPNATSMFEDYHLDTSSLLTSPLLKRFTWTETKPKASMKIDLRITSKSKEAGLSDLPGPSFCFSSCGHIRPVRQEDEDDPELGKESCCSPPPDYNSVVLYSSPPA

Regarding “Recombinant human VEGF165 (from UniProt P15692 27-191) (ligand)”, the migration of rat CSMC (Transwell, 4 hr); optimal VEGF concentration stood at 10 ng/mL and the proliferation of rat CSMC (CellTiter-96, OD490nm, 3 days); optimal VEGF concentration was 12.5 ng/mL.
